The text below walks through data of PMC5964570.

The assay deals with Angiotensin I converting enzyme (ACE) from rabbit lung (rabbit) (UniProt P12822).
UniProt P12822, sequence (P12822 34-1310): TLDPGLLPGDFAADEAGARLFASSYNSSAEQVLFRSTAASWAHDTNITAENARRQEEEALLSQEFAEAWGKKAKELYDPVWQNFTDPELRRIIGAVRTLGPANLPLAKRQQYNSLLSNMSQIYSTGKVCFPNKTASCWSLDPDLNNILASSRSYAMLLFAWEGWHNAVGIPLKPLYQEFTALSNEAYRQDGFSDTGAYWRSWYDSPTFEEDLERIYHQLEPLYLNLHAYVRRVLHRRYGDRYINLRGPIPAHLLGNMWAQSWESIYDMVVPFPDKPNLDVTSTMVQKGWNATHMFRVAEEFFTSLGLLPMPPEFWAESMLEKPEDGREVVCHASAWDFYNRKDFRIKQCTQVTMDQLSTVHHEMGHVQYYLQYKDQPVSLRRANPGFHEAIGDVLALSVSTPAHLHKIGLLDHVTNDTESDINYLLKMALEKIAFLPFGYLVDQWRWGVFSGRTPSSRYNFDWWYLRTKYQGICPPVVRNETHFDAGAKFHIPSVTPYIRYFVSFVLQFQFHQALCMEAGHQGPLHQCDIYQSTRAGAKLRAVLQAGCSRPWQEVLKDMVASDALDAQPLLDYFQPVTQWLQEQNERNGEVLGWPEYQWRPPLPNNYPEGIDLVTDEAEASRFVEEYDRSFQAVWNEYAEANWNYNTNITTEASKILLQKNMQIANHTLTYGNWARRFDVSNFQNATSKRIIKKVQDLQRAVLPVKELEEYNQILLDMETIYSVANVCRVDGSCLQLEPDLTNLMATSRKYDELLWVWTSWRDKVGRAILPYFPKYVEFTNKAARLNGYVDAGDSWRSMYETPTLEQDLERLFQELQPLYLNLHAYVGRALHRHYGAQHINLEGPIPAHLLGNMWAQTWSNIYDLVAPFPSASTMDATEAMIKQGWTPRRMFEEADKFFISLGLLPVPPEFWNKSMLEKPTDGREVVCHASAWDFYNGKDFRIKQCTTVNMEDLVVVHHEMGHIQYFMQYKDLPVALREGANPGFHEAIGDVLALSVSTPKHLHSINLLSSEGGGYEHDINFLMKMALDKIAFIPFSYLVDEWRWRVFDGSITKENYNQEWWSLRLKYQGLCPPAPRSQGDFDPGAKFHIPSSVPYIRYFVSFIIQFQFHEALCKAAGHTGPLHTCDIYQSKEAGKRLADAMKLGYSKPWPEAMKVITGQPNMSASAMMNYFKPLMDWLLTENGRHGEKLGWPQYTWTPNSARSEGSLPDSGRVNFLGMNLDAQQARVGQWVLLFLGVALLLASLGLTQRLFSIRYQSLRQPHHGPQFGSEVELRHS

In the case of Cys-Arg (peptide), the IC50 of inhibition of ACE activity (hippuric acid released from Hip-His-Leu, RP-HPLC; 50 mM HEPES, 360 mM NaCl, pH 8.3, 37°C) came out at 476 μM.
With Cys-Cys (peptide) the figure was 4.37 μM; with Cys-Phe (peptide), 13.8 μM.
